This is an account of results in US20240066131A1 (Protagonist Therapeutics, Inc., priority 2020, published 2024).

Read-outs that look alike come from different tables or passages of the source. Non-standard residues stand in square brackets, D forms with d. Groups on a side chain read outwards from the residue. *: point of attachment. Dip = N[C@H](C(=O)O)C(c1ccccc1)c1ccccc1; Palmitoyl = CCCCCCCCCCCCCCCC(=O)*; β3hF = N[C@H](CC(=O)O)Cc1ccccc1; Isovaleryl = CC(C)CC(=O)*; LAc = not defined here; Ahx = NCCCCCC(=O)O

Common to all, as to experiment: cell-based or functional assay
Test [1] deals with T1, human ferroportin (SLC40A1) fused in frame with GFP, stably expressed in HEK293 cells (human) (UniProt Q9NP59).
T1 sequence (looked up): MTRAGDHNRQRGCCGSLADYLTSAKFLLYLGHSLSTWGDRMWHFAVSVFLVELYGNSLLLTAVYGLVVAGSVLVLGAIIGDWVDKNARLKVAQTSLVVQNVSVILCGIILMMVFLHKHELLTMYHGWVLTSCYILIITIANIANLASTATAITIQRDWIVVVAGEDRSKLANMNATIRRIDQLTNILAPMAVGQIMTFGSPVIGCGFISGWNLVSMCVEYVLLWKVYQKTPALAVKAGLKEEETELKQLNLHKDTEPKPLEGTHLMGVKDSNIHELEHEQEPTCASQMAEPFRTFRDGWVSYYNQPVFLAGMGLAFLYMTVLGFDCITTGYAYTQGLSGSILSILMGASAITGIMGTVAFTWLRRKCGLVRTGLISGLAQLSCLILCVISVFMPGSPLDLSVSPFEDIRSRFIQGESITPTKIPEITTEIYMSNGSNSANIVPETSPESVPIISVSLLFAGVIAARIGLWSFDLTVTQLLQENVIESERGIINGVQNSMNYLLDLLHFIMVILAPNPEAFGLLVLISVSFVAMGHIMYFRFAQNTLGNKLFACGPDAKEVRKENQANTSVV

The target in test [2] is T2, ferroportin endogenously expressed on T47D cells (HTB 133, ATCC) (human, UniProt Q9NP59 1-571).
T2 sequence (looked up): T1 sequence (looked up)

Test [3] deals with T3, human ferroportin (SLC40A1) fused in frame with GFP, stably expressed in HEK293 cells (human, UniProt Q9NP59 1-571).
T3 sequence (looked up): T1 sequence (looked up)

The target of test [4] is T2, ferroportin endogenously expressed on …. This is another data set of the same source.
For test [5], the target named is T3, human ferroportin (SLC40A1) fused in …. This is another data set of the same source.
Test [6] deals with T1, human ferroportin (SLC40A1) fused in frame with GFP, stably expressed in HEK293 cells (human). The source holds these as a separate data set.

Consider “RI-Mini Hepcidin: Hy-DPhe-DIle-DCys-DIle-DPro-DPhe-DHis-DThr-DAsp-NH2 (peptide)”, for which the Potency EC50 (nM) in test [1] is greater than 10000 nM.

B1: Isovaleric Acid-E-T-H-[Dpa]-P-A-d[Lys(Gal-[Lys(Ahx_Palm)]-[bhPhe]-NH2 (peptide)
peptide: Isovaleryl-ETH[Dip]PA[dK](Gal)K([Ahx-Palmitoyl])[β3hF]-NH2
On to B1, for which the “T47D IC50” value in test [2] is 4.05 nM. The “FPN IC50” value in test [3] is 30.6 nM.

B2: Isovaleric Acid-E-T-H-[Dpa]-P-A-[Lys(Gal-[Lys(Ahx_Palm)]-[bhPhe]-NH2 (peptide)
peptide: Isovaleryl-ETH[Dip]PAK(Gal)K([Ahx-Palmitoyl])[β3hF]-NH2
B2: the “T47D IC50” value in test [2] was determined as 19.1 nM. Moreover, in test [3], the “FPN IC50” value was found to be 42 nM.

B3: Isovaleric Acid-[Lys(LAc-T-H-[Dpa]-P-A-I-[Lys(Ahx_Palm)]-[bhPhe]-NH2 (peptide)
peptide: Isovaleryl-K(LAc)TH[Dip]PAIK([Ahx-Palmitoyl])[β3hF]-NH2
modifications: reading uncertain
In the case of B3, the “T47D IC50” value in test [4] stood at 284 nM. Also, the “FPN IC50” value in test [5] is 27.5 nM.

B4: Mini-Hepcidin 1-9: Hy-…-NH2 (peptide, from a related filing)
peptide: H-DTHFPICIF-NH2
For B4, the Potency EC50 in test [6] was 712 nM.

B5: Isovaleric Acid-E-T-H-[Dpa]-[Lys(Ahx_Palm)]-N_Butyl_Phe (peptide)
peptide: Isovaleryl-ETH[Dip]K([Ahx-Palmitoyl])-N_Butyl_Phe
Turning to B5, in test [4], the “T47D IC50” value was found to be 464 nM. Moreover, in test [5], the “FPN IC50” value is 62.2 nM.

B6: Isovaleric Acid-[Lys(Glu-T-H-[Dpa]-P-A-I-[Lys(Ahx_Palm)]-[bhPhe]-NH2 (peptide)
peptide: Isovaleryl-K(Glu)TH[Dip]PAIK([Ahx-Palmitoyl])[β3hF]-NH2
Take B6: the “T47D IC50” value in test [4] turned out to be 229 nM. In addition, in test [5], the “FPN IC50” value came out at 27 nM.
